Molecular target: integrin αV/β5 (Homo sapiens, UniProt P06756+P18084)
Experiment: Differential HDX/MS of irisin and integrin αV/β5
Type: binding
Conditions: 10 μM irisin, 30 μM integrin αV/β5
Method: Differential HDX-MS experiments were conducted as previously described with a few modifications (Chalmers et al. (2006) Anal. Chen. 78:1005-1014).
Protein samples were injected for inline pepsin digestion and the resulting peptides were identified using tandem MS (MS/MS) with an Orbitrap™ mass spectrometer (Fusion Lumos, ThermoFisher). Following digestion, peptides were desalted on a C8 trap column and separated on a 1 hour linear gradient of 5-40% B (A is 0.3% formic acid and B is 0.3% formic acid 95% CH3CN). Product ion spectra were acquired in data-dependent mode with a one second duty cycle such that the most abundant ions selected for the product ion analysis by higher-energy collisional dissociation between survey scan events occurring once per second. Following MS2 acquisition, the precursor ion was excluded for 16 seconds. […]
HDX-MS analysis: Apo proteins (irisin and integrin αV/β5) were analyzed at 10 μM each. […] The intensity weighted mean m/z centroid value of each peptide envelope was calculated and subsequently converted into a percentage of deuterium incorporation. […] Statistical significance for the differential HDX data was determined by an unpaired t-test for each time point, a procedure that was integrated into the HDX Workbench software (Pascal et al. (2012) J Am. Soc. Mass Spectrom. 23:1512-1521). […]

integrin αV/β5, sequence (P18084 24-719 limits assumed): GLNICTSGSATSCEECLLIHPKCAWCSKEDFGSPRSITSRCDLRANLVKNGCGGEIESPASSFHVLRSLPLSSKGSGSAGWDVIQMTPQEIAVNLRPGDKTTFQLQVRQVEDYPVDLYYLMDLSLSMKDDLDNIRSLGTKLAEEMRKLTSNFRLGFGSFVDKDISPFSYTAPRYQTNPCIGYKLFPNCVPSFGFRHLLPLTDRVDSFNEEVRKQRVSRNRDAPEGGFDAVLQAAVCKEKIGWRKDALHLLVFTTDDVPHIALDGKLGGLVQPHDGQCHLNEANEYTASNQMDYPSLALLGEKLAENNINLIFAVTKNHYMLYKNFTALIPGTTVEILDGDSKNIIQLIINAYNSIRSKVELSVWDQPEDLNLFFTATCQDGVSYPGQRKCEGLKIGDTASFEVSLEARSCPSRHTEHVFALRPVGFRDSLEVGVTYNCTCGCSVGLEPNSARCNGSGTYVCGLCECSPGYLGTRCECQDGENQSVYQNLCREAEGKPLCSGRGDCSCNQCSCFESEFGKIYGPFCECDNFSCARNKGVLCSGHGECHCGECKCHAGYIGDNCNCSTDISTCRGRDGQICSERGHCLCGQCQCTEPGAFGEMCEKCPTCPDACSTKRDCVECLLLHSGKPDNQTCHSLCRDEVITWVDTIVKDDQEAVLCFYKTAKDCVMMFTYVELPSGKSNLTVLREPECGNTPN
integrin αV/β5, sequence (P06756 31-889 limits assumed): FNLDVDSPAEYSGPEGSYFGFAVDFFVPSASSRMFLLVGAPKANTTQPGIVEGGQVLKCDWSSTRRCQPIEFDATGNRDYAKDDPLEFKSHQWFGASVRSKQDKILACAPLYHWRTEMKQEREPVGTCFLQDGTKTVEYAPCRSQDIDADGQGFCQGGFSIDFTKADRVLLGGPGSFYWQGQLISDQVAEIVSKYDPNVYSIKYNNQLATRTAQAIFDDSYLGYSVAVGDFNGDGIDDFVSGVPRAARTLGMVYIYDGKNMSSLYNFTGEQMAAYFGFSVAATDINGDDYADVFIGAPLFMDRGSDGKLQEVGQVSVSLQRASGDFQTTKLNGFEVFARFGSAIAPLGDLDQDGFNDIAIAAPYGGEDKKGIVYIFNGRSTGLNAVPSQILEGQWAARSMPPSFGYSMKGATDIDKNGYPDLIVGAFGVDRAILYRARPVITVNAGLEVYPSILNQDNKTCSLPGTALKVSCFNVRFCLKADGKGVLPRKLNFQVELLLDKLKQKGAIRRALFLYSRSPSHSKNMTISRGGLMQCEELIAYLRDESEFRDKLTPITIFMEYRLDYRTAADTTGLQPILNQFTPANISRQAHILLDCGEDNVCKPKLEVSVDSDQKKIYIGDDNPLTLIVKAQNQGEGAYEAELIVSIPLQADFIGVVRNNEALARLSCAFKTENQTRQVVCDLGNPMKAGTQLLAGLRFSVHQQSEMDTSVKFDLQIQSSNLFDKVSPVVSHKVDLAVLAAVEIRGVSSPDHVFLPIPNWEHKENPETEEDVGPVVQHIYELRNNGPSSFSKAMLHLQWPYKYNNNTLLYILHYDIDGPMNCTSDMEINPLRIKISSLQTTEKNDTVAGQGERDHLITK
integrin αV/β5, sequence (P06756 891-992 partner limits assumed): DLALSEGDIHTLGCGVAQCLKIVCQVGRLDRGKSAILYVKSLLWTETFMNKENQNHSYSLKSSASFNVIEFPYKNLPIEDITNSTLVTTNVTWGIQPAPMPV

B1: irisin: secreted cleaved form of FNDC5; recombinant human/mouse irisin with C-terminal his tag produced in HEK293 cells (protein)
chain: DSPSAPVNVTVRHLKANSAVVSWDVLEDEVVIGFAISQQKKDVRMLRFIQEVNTTTRSCALWDLEEDTEYIVHVQAISIQGQSPASEPVLFKTPREAEKMASKNKDEVTMKE
modifications: left off: small tags and cut ends
notes: secreted cleaved form of FNDC5; recombinant human/mouse irisin with C-terminal his tag produced in HEK293 cells
Which “direct interaction with integrin αV/β5 (HDX/MS)” value does the source give for B1 here?
The value was “directly binds integrin αV/β5”.

— patent US20210063414A1, “METHODS FOR PREVENTING AND/OR TREATING BONE LOSS CONDITIONS BY MODULATING IRISIN” (Dana-Farber Cancer Institute, Inc., priority 2018, published 2021)
